{
  "source": "patent US20160184454A1",
  "about": "“RAB7L1 INTERACTS WITH LRRK2 TO MODIFY INTRANEURONAL PROTEIN SORTING AND PARKINSON'S DISEASE RISK” (THE TRUSTEES OF COLUMBIA UNIVERSITY IN THE CITY OF NEW YORK, priority 2013, published 2016)",
  "key": {"[1]": {"test_system": "rat primary cortical neurons", "experiment": "Neurite length assay in transfected primary cortical neuron cultures", "assay_type": "cell-based", "conditions": "co-transfection with LRRK2 G2019S (0.5 μg/well); test vector 1 μg/well", "excerpt": "As 5 candidate genes are present within the PARK16 locus (SLC45A3, NUCKS, RAB7L1, SLC41A1, and PM20D1), each of the genes were experimentally screened for a functional interaction with LRRK2 (FIG. 2A). A previously-described primary rat neuron in vitro culture model was used, in which transient expression of familial PD-associated LRRK2 G2019S or R1441C mutant alleles leads to a marked reduction in neurite process length (MacLeod et al., 2006). […] RAB7L1 is a small cytosolic GTPase, structurally distinct from RAB7 despite its name (also known as RAB29) (Shimizu et al., 1997). […] But the function of RAB7L1 in CNS neurons remains unknown. Orthologues of RAB7L1 in other organisms, including C. elegans Glo-1 and Drosophila melanogaster Lighloid, have been implicated in trafficking to lysosome-related organelles (Hermann et al., 2005) and in the regulation of neurite process length (Grill et al., 2007), reminiscent of LRRK2 mutant phenotypes (MacLeod et al., 2006). Thus this gene was of particular interest.\nSprague-Dawley rat or mouse PI primary dissociated cortical cultures were prepared and transfected essentially as described (Xia et al., 1996) with the following modifications: cells were plated at high density, approximately 250,000 cells/cm2, in 24-well plates with 500 ul medium/well. Culture medium used for plating cells was Neurobasal-A supplemented with 2% B-27 and 10% FBS. At 1 day after plating, medium was changed to reduced serum (1% FBS+added antimitotic agents: 70 μM uridine and 25 μM 5-fluorodeoxyuridine) and replaced weekly thereafter; for transfections no DMSO was added to the transfection mixture, cells were not subjected to glycerol shock, and a total of 3 μg plasmid DNA was used per well. Cells were fixed in 4% PFA and immunostained with mouse α-RAB7L1 (Santa Cruz, 1:100), and rabbit monoclonal α-LRRK2 (Michal J. Fox Foundation MJFF4, 1:100), then with appropriate fluorescent secondaries (Jackson, 1:1000-2000). Neurite length and neurite puncta (defined as swellings greater than 2 um in diameter) were counted for at least 20 neurons per condition. Mean puncta number per neuron was normalized to total average neurite length versus wild-type LRRK2 transfected cells. Fluorescent microscopy was performed using a Nikon TE 2000-S microscope and a Zeiss LSM510 Meta confocal microscope. Images were analyzed using Image-Pro Plus (Mediacybernetics) software version 5.1.0.20."}, "[2]": {"test_system": "Drosophila model of LRRK2 G2019S neurodegeneration", "experiment": "Drosophila adult survival: Rab modifier screen of the LRRK2 G2019S early adult lethality phenotype", "assay_type": "in vivo", "conditions": "for Average adult lifespan: TH-driven Rab GTPase transgene co-expressed with LRRK2 G2019S in Drosophila dopamine neurons, days post-eclosion; for rescue of the LRRK2 G2019S premature mortality phenotype (survival): co-expression with LRRK2 G2019S in Drosophila dopamine neurons", "excerpt": "To pursue potential mechanisms of LRRK2 pathology in vivo, a Drosophila model was established. […] Dopamine neuron-selective expression of human familial PD-associated G2019S-mutant LRRK2—using either a tyrosine hydroxylase (TH) (Friggi-Grelin et al., 2003) or dopa decarboxylase (DDC) promoter-Gal4 driver (Fischer et al., 1988)—induced premature mortality of young adult animals (FIG. 4A; nontransgenic mean lifespan 37.1 days+/−1; G2019S mean lifespan 4.8 days+/−0.2), akin to previous reports (Ng et al., 2009).\nSubsequently a targeted screen for potential genetic modifiers of the LRRK2 G2019S mutant phenotype was performed, based on the idea that LRRK2 may modify a specific intracellular trafficking process, and focused on RAB7L1. A series of 16 Drosophila Rab genes, (see Table 4; out of 33 identified in Drosophila), or CA or IN forms of these (Zhang et al., 2007), were investigated.\nBriefly, LRRK2 G2019S mutants were mated with a panel of previously described transgenic Drosophila strains that allow for overexpression of wild-type (WT) or constitutively active (CA), forms of the Rab genes (Zhang et al., 2007), using a standard balancer chromosome-based mating scheme. Co-expression of a majority of these Rab transgenes with LRRK2 within dopamine neurons produced no effect on the survival of animals co-expressing LRRK2 G2019S (FIG. 4A; Table 4).\n(§1) Drosophila were cultured by standard methods on yeast-cornmeal-agar medium at 25° C. Wild-type and mutant G2019S LRRK2 transgenes were expressed specifically in catecholaminergic neurons, including dopamine neurons, using the Gal4-UAS system described (Fischer et al., 1988). Driver lines used include OK6 (motor neuron), Gmr (eye), G14 (muscle), TH (dopaminergic neuron), and DDC (dopaminergic neuron). A UAS-GFP::nuclear localization sequence (NLS) marker was used to visualize nucleii of cells in which trangenes were expressed (stock 4775 (w 1118; P{UAS-GFP.nls}14), Drosophila Stock Center, Bloomington, Ind.). For the RAB screen, UAS-LRRK2 (G2019S) transgenic Drosophila, crossed with the TH-Gal4 driver, were screened against a UAS-Rab transgenic library (Zhang et al., 2007). Crossings were typically performed using standard balancer chromosome techniques. To generate strains in which the homozygous LRRK2 transgene and another (Driver or marker) transgene lay on the same chromosome (III), genetic recombination was using standard techniques. Adult Drosophila mushroom bodies were dissected as in (Wu and Luo, 2006) and imaged immediately, without fixation, using a Zeiss LSM510 Meta confocal fluorescent microscope. For mortality curves, transgenic Drosophila surviving through adult metamorphosis were counted daily, from the day of pupal eclosion onward. Locomotion deficits were assessed by methods know in the art."}, "[3]": {"test_system": "Lrrk mutant (−/−) Drosophila", "experiment": "Negative geotaxis analysis of lrrk mutant Drosophila", "assay_type": "in vivo", "conditions": "pan-neuronal expression in lrrk mutant (−/−) Drosophila", "description": "FIG. 11 is a bar graph showing a negative geotaxis analysis of lrrk mutant Drosophila. […] Bars represent Mean times to climb 10 cm upward in a cylinder are represented. Error bars are SEM. ***: p<0.001, for comparison with the non-transgenic group by ANOVA (df=3, F=13.14) followed by Tukey HSD post hoc analysis.\nas §1, with “To generate strains in which the homozygous LRRK2 transgene and another (Driver or marker) transgene lay on the same chromosome (III), genetic recombination was using standard techniques. Adult Drosophila mushroom bodies were dissected as in (Wu and Luo, 2006) and imaged immediately, without fixation, using a Zeiss LSM510 Meta confocal fluorescent microscope.” left out"}},
  "data": [
    {"molecule": "SLC41A1: PARK16 locus gene overexpression vector", "values": [
      {"measurement": "LRRK2 mutation-induced neurite length phenotype", "setting": "[1]", "result": "failed to rescue"}
    ]},
    {"molecule": "G2019S: human familial PD-associated G2019S-mutant LRRK2 transgene", "values": [
      {"measurement": "mean lifespan", "setting": "[2]; dopamine neuron-selective expression of the LRRK2 transgene alone (TH or DDC Gal4 driver)", "result": 4.8, "unit": "days"},
      {"measurement": "defective negative geotaxis (time to climb 10 cm)", "setting": "[3]", "result": "can be rescued"}
    ]},
    {"molecule": "human LRRK2 WT: wild-type human LRRK2 transgene", "values": [
      {"measurement": "phenotype on transgenic expression", "setting": "[2]; dopamine neuron-selective expression of the LRRK2 transgene alone", "result": "did not lead to a discernible phenotype"},
      {"measurement": "defective negative geotaxis (time to climb 10 cm)", "setting": "[3]", "result": "can be rescued"}
    ]},
    {"molecule": "RAB5A: Rab family member expression vector (protein, UniProt P20339 1-215, looked up) Ras-related protein Rab-5A: MASRGATRPNGPNTGNKICQFKLVLLGESAVGKSSLVLRFVKGQFHEFQESTIGAAFLTQTVCLDDTTVKFEIWDTAGQERYHSLAPMYYRGAQAAIVVYDITNEESFARAKNWVKELQRQASPNIVIALSGNKADLANKRAVDFQEAQSYADDNSLLFMETSAKTSMNVNEIFMAIAKKLPKNEPQNPGANSARGRGVDLTEPTQPTRNQCCSN", "values": [
      {"measurement": "LRRK2 mutation-induced neurite length phenotype", "setting": "[1]", "result": "failed to rescue the phenotype"}
    ]},
    {"molecule": "NUCKS1: PARK16 locus gene overexpression vector (protein, UniProt Q9H1E3 1-243, looked up) Nuclear ubiquitous casein and …: MSRPVRNRKVVDYSQFQESDDADEDYGRDSGPPTKKIRSSPREAKNKRRSGKNSQEDSEDSEDKDVKTKKDDSHSAEDSEDEKEDHKNVRQQRQAASKAASKQREMLMEDVGSEEEQEEEDEAPFQEKDSGSDEDFLMEDDDDSDYGSSKKKNKKMVKKSKPERKEKKMPKPRLKATVTPSPVKGKGKVGRPTASKASKEKTPSPKEEDEEPESPPEKKTSTSPPPEKSGDEGSEDEAPSGED", "values": [
      {"measurement": "LRRK2 mutation-induced neurite length phenotype", "setting": "[1]", "result": "failed to rescue"}
    ]},
    {"molecule": "RAB3A: Rab family member expression vector (protein, UniProt P20336 1-220, looked up) Ras-related protein Rab-3A: MASATDSRYGQKESSDQNFDYMFKILIIGNSSVGKTSFLFRYADDSFTPAFVSTVGIDFKVKTIYRNDKRIKLQIWDTAGQERYRTITTAYYRGAMGFILMYDITNEESFNAVQDWSTQIKTYSWDNAQVLLVGNKCDMEDERVVSSERGRQLADHLGFEFFEASAKDNINVKQTFERLVDVICEKMSESLDTADPAVTGAKQGPQLSDQQVPPHQDCAC", "values": [
      {"measurement": "LRRK2 mutation-induced neurite length phenotype", "setting": "[1]", "result": "failed to rescue the phenotype"}
    ]},
    {"molecule": "PM20D1: PARK16 locus gene overexpression vector (protein, UniProt Q6GTS8 26-502, looked up) N-fatty-acyl-amino acid …: MGPRSGEHQRASRIPSQFSKEERVAMKEALKGAIQIPTVTFSSEKSNTTALAEFGKYIHKVFPTVVSTSFIQHEVVEEYSHLFTIQGSDPSLQPYLLMAHFDVVPAPEEGWEVPPFSGLERDGIIYGRGTLDDKNSVMALLQALELLLIRKYIPRRSFFISLGHDEESSGTGAQRISALLQSRGVQLAFIVDEGGFILDDFIPNFKKPIALIAVSEKGSMNLMLQVNMTSGHSSAPPKETSIGILAAAVSRLEQTPMPIIFGSGTVVTVLQQLANEFPFPVNIILSNPWLFEPLISRFMERNPLTNAIIRTTTALTIFKAGVKFNVIPPVAQATVNFRIHPGQTVQEVLELTKNIVADNRVQFHVLSAFDPLPVSPSDDKALGYQLLRQTVQSVFPEVNITAPVTSIGNTDSRFFTNLTTGIYRFYPIYIQPEDFKRIHGVNEKISVQAYETQVKFIFELIQNADTDQEPVSHLHKL", "values": [
      {"measurement": "LRRK2 mutation-induced neurite length phenotype", "setting": "[1]", "result": "failed to rescue"}
    ]},
    {"molecule": "Rab7WT: TH-driven Drosophila Rab GTPase transgene, wild-type Rab7 (protein, UniProt O76742 1-207, looked up) Ras-related protein Rab7: MSGRKKSLLKVIILGDSSVGKTSLMNQYVNKRFSNQYKATIGADFCTKEVVVNDRVVTMQIWDTAGQERFQSLGVAFYRGADCCVLVYDVTAPNSFKNLDSWRDEFLIQASPRDPDHFPFVVLGNKVDLDNRQVSTRRAQQWCQSKNDIPYYETSAKEGINVEMAFQVIAKNALELEAEAEVINDFPDQITLGSQNNRPGNPDNCQC", "values": [
      {"measurement": "mean lifespan", "setting": "[2]; Rab transgene co-expressed with LRRK2 G2019S in dopamine neurons", "result": 14.3, "unit": "days"},
      {"measurement": "Average adult lifespan", "setting": "[2]", "result": 10.2, "unit": "days"},
      {"measurement": "rescue of the LRRK2 G2019S premature mortality phenotype (survival)", "setting": "[2]", "result": "statistically significant—albeit much weaker—survival benefit"}
    ]},
    {"molecule": "Rab7L1WT: TH-driven wild-type Drosophila RAB7L1 orthologue (termed lightoid) transgene (protein, left off: large carriers, TH-driven wild-type Drosophila RAB7L1 orthologue (termed lightoid) transgene) MGSRDHLFKVLVVGDAAVGKTSLVQRYSQDSFSKHYKSTVGVDFALKVLQWSDSEMVRLQLWDIAGQERFTSMTRLYYRDASACVIMFDVTNATTFSNSQRWKQDLDSKLTLPSGEPVPCLLLANKSDLSPWAVSRDQIDRFSKENGFTGWTETSVKENKNINEAMRVLVEKMMNNSREDIMSSSTQGNYINLQTKPSPGWTCC", "values": [
      {"measurement": "Average adult lifespan", "setting": "[2]", "result": 23.3, "unit": "days"},
      {"measurement": "rescue of the LRRK2 G2019S premature mortality phenotype (survival)", "setting": "[2]", "result": "dramatic rescue"}
    ]},
    {"molecule": "SLC45A3: PARK16 locus gene overexpression vector (protein, UniProt Q96JT2 1-553, looked up) Solute carrier family 45 …: MVQRLWVSRLLRHRKAQLLLVNLLTFGLEVCLAAGITYVPPLLLEVGVEEKFMTMVLGIGPVLGLVCVPLLGSASDHWRGRYGRRRPFIWALSLGILLSLFLIPRAGWLAGLLCPDPRPLELALLILGVGLLDFCGQVCFTPLEALLSDLFRDPDHCRQAYSVYAFMISLGGCLGYLLPAIDWDTSALAPYLGTQEECLFGLLTLIFLTCVAATLLVAEEAALGPTEPAEGLSAPSLSPHCCPCRARLAFRNLGALLPRLHQLCCRMPRTLRRLFVAELCSWMALMTFTLFYTDFVGEGLYQGVPRAEPGTEARRHYDEGVRMGSLGLFLQCAISLVFSLVMDRLVQRFGTRAVYLASVAAFPVAAGATCLSHSVAVVTASAALTGFTFSALQILPYTLASLYHREKQVFLPKYRGDTGGASSEDSLMTSFLPGPKPGAPFPNGHVGAGGSGLLPPPPALCGASACDVSVRVVVGEPTEARVVPGRGICLDLAILDSAFLLSQVAPSLFMGSIVQLSQSVTAYMVSAAGLGLVAIYFATQVVFDKSDLAKYSA", "values": [
      {"measurement": "LRRK2 mutation-induced neurite length phenotype", "setting": "[1]", "result": "failed to rescue"}
    ]}
  ]
}
